Data as given in the RNAGym collection of RNA variant scans (doi:10.1073/pnas.2313332121).

B1: TPR t1 (parent)
chain: GACCAAUCUGCCCUCAGAGCUCGAGAACAUCUUCGGAUGCAGAGGAGGCAGGCUUCGGUGGCGCGAUAGCGCCAACGUCCUCAACCUCCAAUGCAUCCCACCACAUGAUGAUGCCUGAAGAGCCUUGGUUUUUUG

Variants of: B1
Assay: polymerase ribozyme fitness, log enrichment relative to wild type (log ratio); higher = more active; in vitro selection for triplet polymerase activity
In short: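 Mutant libraries for each subunit of a heterodimeric triplet polymerase ribozyme were made by PCR and then transcribed. Each library underwent one round of in vitro selection in triplicate: annealing with a biotinylated primer, the partner subunit and triplets, frozen incubation at −7 °C, gel excision of extended constructs, streptavidin-bead capture and RT-PCR. Input and output libraries were Illumina-sequenced, and only genotypes with ≥10 input reads and ≥1 read per output were kept. Fitness is the logarithm, base 2, of genotype enrichment over wild-type enrichment, computed from inverse-variance-weighted replicate averages.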

Row | Variant | polymerase ribozyme fitness (log ratio)
1 | C97G C102G A111G | -6.52
2 | C94G G117A | -2.51
3 | A103U A121G C123U | -2.56
4 | C101G C102U G117A | -7.15
5 | U109A U116C | -7.07
6 | A95C G128C | -2.12
7 | U106A U112G G117C | -5.9
8 | U112G U130A | 0.613
9 | C101U C124A | 1.17
10 | C104A G128A | -3.67
11 | U109G U132A | -3.91
12 | C101A G127C | -1.82
13 | G110A G120U | -1.91
14 | C114A U131C | -1.66
15 | C99A G122A | -5.29
16 | G113U C124A | -1.53
17 | U112G G113A U125C | -2.43
18 | A111U U112G G122A | -2.25
19 | U109G G113A | -5.72
20 | U106A G110U U126A U130A | -3.03
21 | C104G C114G G120A U126C U133G | -5.9
22 | C101U G107A | -4.66
23 | U106A U133G | -0.54
24 | G113U C115A | -4.42

Row | Variant | polymerase ribozyme fitness (log ratio)
25 | C101U A111C U116G | -2.46
26 | C101A G117A | -2.65
27 | C101A G117C | -5.15
28 | C104A U134G | -1.17
29 | U109A G135U | -4.82
30 | A100C U112G | -0.251
31 | A103U C123U | -3.47
32 | C94U C102U U126C | -2.66
33 | A105G G120C | -1.97
34 | A105G G120U | -2.44
35 | U106A G110U | -0.605
36 | C97U U133A | -0.824
37 | A111C G127A | -2.45
38 | C99U G128A U129A | -5.76
39 | C101G G127A | -2.28
40 | G113U U116A | -4.64
41 | U96A C104U C124U | 0.864
42 | C104A C114G | -3.81
43 | A108G U112A | -2.86
44 | C97G A103U | -5.1
45 | A111C C114G | -3.93
46 | C97U U112A | 0.716
47 | C99U G110C | -6.69
48 | C94G U116C A118C | -3.89

Row | Variant | polymerase ribozyme fitness (log ratio)
49 | A95U U130C | -0.986
50 | G107A C114G G128A | -7.24
51 | A105U G117A | -4.52
52 | C102A G113A | -2.68
53 | C104A G117C U131C | -4.93
54 | C101A C114A | -2.19
55 | C101A C114U | -2.99
56 | C97U U112C A121C | 1.3
57 | C94G C114U G128C | -3.47
58 | C98U C115A | -2
59 | C114G G117U | -3.8
60 | C114G G117A | -5.27
61 | C97U C104A | -2.32
62 | C99U A111G | -2.23
63 | C99U A111C | -2.83
64 | C104A G120U G127C | -1.76
65 | A103U G120C C124U | -4.96
66 | U109G C114G | -4.93
67 | U112A A118U G135A | 1.33
68 | A95U | -0.816
69 | A95C | -0.933
70 | A95G | 0.119
71 | C94A U96A | -6.34
72 | C101U G122A | -1.06

Row | Variant | polymerase ribozyme fitness (log ratio)
73 | G113U A119G | -1.66
74 | G113U A119C | -5.27
75 | C102U U125A U129C | -3.71
76 | U96G C114A | 0.0255
77 | A105G U106A G120U U133C | 0.414
78 | A105C U109A U133C | -5.16
79 | C94A C114U | -2.56
80 | U109A C123A | -6.83
81 | U109A C123U | -3.85
82 | C94U U112A C124G | 1.39
83 | C104A G120C G127A U129A | -2.25
84 | C97A C123G | -3.19
85 | U106A G122A | -0.693
86 | G110C C124A | -3.32
87 | A95G U112A A119U | 0.842
88 | C104U A118U U131A | 0.243
89 | C101A U131C | -0.88
90 | G113A G128C | -2.85
91 | U112A C114A U133A | -1.04
92 | A108C | -3.71
93 | A108G | -1.19
94 | A108U | -4.97
95 | A103C U109G U130C | -5.77
96 | G110A G135U | -1.92

Row | Variant | polymerase ribozyme fitness (log ratio)
97 | C98U G117A | -2.99
98 | A95U U109A U130G | -6.07
99 | C104U U112G U116C | -1.98
100 | C99A C123A | -5.64
101 | U109A A111C C114A G117C | -6.37
102 | U96G G110U | -2.73
103 | C94A C124A U125C U131A | -0.191
104 | G113A U131A | -0.84
105 | C94U C99U U125A | -3.61
106 | C98U A121C U125A U129A | -1.75
107 | G110A C123U | -0.322
108 | C101U A105C C114A | -6.11
109 | C102U U132A | -1.83
110 | C97U A121U | 1.5
111 | A108G U116A C123U | -6.42
112 | C98U A105G C114G C115A G135U | -7.98
113 | U112C G117A | -0.498
114 | C94G U130A G135U | -1.4
115 | C114A A119U | -3.28
116 | A100C C124A | 0.995
117 | C97A A111U | -5.77
118 | C97A A111G | -5.96
119 | U112C C124G | 1.79
120 | C97U G113C | -2.71

Row | Variant | polymerase ribozyme fitness (log ratio)
121 | U106A G107U U116C | -7.47
122 | C101U U106C A111C | -0.324
123 | C94G C115A | -0.789
124 | U112A A119G | 1.9
125 | C94A G127C | -2.37
126 | G113A G122C | -3.36
127 | A95G U125A | -0.382
128 | C94A U112G C124G | 0.054
129 | U109A G110U | -3.28
130 | G107U A121U G128C | -4.77
131 | C101A A105C A118U | -4.79
132 | G110U G120U | -2.75
133 | A100C C102A | -2.98
134 | G113C U126C | -2.46
135 | A111C U133C | 1.26
136 | C98U U116A | -4.71
137 | A95U U96A C101G U106C C124A | -4.41
138 | C98A A100U U112A | -5.91
139 | C97G C104U | -3.29
140 | C97U C114G | -3.36
141 | C97U C114A | -1.76
142 | C97U C114U | -2.99
143 | C99U C101A | -4.62
144 | C99U C101U | -2.29

Row | Variant | polymerase ribozyme fitness (log ratio)
145 | C102U A121U | 0.0802
146 | G113A C114A U125A U133A | -3.52
147 | C97U G127A | -1.48
148 | U106A G127C | -3.2
149 | C104A C124U U130A | -3.43
150 | A108G G122U | -1.78
151 | C94U U129A | -1.25
152 | C94U A108U C124A | -4.49
153 | C101U U109C | -3.93
154 | U96G G117A A119G | 0.491
155 | U96C C102U G110A G122U | -6.13
156 | U96C G128U | -1.67
157 | A100C A121G | 1.39
158 | U96A C99A U106G | -5.31
159 | C99U C114U | -4.12
160 | C98U C104U U112A | -2.26
161 | U106C U109A A121U | -4.69
162 | C101A C104A A121C | -0.368
163 | G110A G127A U134C | -3.29
164 | A95C C97U C101G | -3.36
165 | A100U U112G | -0.123
166 | U96A A119U | -1.13
167 | G107A U125G | -5.84
